Assay results published in the supplement of paper PMC10065799, “High-throughput profiling of sequence recognition by tyrosine kinases and SH2 domains using bacterial peptide display” (eLife, 2023).

What was measured:
AncSZ = test: phosphorylation enrichment, bacterial display (enrichment ratio); higher = better substrate or ligand; peptides without Tyr show the background
EPHB1 = EPHB1 (UniProt P54762); test: as above
EPHB2 = EPHB2 (UniProt P29323); test: as above
FGFR1 = FGFR1 (UniProt P11362); test: as above
Sequence of FGFR1 (P11362 whole entry, looked up): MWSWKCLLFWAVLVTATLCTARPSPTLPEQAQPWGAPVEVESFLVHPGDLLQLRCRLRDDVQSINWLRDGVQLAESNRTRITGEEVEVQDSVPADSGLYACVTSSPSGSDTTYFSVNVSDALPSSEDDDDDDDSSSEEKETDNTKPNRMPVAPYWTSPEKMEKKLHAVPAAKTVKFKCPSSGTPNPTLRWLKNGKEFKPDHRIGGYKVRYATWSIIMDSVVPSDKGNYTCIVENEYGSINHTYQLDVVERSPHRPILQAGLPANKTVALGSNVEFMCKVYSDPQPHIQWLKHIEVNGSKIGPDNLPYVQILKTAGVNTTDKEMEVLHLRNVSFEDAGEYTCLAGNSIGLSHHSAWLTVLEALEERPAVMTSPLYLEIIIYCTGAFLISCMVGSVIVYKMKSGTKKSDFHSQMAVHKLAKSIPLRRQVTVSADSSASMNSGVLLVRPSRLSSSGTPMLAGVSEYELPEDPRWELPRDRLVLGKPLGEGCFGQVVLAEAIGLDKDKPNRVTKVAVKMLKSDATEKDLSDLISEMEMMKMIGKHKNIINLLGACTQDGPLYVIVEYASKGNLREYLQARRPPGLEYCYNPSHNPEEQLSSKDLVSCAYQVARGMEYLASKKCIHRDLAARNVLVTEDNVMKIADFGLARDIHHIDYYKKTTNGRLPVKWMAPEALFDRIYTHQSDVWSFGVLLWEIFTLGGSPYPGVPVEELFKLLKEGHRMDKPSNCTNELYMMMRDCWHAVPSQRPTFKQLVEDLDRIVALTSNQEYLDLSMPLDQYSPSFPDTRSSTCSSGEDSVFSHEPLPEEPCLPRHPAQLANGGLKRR

FGFR3 = FGFR3 (UniProt P22607); test: as above
Sequence of FGFR3 (P22607 whole entry, looked up): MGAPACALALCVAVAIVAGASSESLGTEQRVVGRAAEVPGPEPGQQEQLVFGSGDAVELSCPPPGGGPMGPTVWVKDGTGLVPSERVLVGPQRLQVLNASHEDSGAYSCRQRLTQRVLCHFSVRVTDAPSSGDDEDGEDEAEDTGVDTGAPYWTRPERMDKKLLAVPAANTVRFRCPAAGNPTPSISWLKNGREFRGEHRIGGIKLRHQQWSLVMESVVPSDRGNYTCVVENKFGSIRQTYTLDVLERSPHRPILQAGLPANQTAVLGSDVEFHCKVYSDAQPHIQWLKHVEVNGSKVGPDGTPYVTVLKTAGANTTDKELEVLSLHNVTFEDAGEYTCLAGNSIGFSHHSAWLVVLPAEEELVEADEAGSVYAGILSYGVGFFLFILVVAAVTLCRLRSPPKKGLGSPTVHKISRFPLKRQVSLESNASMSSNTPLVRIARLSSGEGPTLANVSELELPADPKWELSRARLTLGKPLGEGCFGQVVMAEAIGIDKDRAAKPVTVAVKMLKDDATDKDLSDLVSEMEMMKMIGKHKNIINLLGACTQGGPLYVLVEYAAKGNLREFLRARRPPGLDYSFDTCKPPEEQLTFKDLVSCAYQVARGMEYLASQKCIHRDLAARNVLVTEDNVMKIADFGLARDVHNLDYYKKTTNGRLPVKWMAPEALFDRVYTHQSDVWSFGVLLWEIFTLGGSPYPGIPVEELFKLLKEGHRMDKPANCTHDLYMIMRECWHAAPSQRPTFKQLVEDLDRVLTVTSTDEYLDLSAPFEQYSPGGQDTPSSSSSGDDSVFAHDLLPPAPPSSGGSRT

Fer (mouse) = test: as above
Fes = Fes (UniProt P07332); test: as above
Fyn = Fyn (UniProt P06241); test: as above
Hck = Hck (UniProt P08631); test: as above
Sequence of Hck (P08631 whole entry, looked up): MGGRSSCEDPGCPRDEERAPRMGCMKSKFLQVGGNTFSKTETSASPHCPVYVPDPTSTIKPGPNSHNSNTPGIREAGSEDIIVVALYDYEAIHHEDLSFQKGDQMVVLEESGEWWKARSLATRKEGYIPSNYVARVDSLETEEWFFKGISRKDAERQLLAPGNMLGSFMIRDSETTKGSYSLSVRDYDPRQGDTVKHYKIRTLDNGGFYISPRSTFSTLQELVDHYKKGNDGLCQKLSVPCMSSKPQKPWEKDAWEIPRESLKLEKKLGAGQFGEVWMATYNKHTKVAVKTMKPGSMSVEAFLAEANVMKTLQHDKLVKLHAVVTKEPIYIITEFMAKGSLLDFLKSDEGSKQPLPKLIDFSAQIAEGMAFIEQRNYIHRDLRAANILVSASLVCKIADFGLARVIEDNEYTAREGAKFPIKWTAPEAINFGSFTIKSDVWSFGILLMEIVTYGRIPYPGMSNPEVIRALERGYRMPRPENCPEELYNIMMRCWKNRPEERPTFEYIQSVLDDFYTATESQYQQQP

Jak2 = Jak2 (UniProt O60674); test: as above
Sequence of Jak2 (O60674 whole entry, looked up): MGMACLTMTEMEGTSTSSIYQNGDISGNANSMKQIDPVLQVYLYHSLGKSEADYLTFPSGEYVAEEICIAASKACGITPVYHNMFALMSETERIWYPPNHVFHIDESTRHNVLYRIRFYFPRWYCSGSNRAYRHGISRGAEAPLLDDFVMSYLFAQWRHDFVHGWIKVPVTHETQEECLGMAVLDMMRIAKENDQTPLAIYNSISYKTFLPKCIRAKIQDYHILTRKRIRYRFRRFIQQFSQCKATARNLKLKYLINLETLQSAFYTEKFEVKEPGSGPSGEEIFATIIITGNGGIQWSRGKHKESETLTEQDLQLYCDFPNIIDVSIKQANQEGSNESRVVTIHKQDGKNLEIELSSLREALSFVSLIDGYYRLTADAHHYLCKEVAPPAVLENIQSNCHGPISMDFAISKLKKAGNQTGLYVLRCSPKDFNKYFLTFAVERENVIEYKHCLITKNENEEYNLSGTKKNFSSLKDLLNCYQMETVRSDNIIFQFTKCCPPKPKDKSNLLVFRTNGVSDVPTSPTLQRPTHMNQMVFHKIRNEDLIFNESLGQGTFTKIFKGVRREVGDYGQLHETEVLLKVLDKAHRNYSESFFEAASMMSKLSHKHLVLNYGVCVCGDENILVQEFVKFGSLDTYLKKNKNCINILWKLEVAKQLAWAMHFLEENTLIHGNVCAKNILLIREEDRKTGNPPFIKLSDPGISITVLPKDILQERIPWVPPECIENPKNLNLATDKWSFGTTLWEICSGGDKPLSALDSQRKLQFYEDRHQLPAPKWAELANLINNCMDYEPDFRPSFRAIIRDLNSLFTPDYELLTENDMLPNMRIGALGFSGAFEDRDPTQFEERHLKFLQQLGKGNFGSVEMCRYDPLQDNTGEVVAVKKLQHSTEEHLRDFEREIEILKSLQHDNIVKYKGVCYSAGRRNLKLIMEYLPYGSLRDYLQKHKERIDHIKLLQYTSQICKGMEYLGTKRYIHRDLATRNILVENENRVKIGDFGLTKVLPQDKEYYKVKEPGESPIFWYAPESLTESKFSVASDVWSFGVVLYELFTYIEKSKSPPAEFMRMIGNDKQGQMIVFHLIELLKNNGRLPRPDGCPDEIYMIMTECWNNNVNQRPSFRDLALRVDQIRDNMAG

MERTK = MERTK (UniProt Q12866); test: as above
c-Abl (mouse) = test: as above
c-Src = test: as above
Grb2 SH2 = Grb2 SH2 (UniProt P62993); test: SH2 binding enrichment of the phosphorylated peptide, bacterial display (enrichment ratio); higher = better substrate or ligand; peptides without Tyr show the background
Sequence of Grb2 SH2 (P62993 whole entry, looked up): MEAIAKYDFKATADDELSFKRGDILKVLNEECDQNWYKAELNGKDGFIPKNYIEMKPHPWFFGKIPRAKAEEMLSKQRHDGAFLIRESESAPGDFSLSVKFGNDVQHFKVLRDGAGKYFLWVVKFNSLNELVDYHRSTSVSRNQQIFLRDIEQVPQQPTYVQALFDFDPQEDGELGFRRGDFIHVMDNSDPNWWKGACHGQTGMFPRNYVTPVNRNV

SHP2-C SH2 = test: as above
c-Src SH2 = test: as above
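Throughout, for SH2 binding enrichment of the phosphorylated peptide, bacterial display: peptide library displayed on the E. coli surface as eCPX fusions, selected cells deep-sequenced, score is each peptide's frequency after selection divided by its frequency in the input.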
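Throughout, for phosphorylation enrichment, bacterial display: 11-residue human phosphosite peptides and single-mutation variants displayed on the E. coli surface, counted by deep sequencing, each peptide's frequency after selection divided by its frequency in the unselected input library; frequency after pTyr selection over input frequency; kinase dosed for 20-30% of maximal phosphorylation in three min.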

Sequence of EPHB2 (P29323 whole entry, looked up): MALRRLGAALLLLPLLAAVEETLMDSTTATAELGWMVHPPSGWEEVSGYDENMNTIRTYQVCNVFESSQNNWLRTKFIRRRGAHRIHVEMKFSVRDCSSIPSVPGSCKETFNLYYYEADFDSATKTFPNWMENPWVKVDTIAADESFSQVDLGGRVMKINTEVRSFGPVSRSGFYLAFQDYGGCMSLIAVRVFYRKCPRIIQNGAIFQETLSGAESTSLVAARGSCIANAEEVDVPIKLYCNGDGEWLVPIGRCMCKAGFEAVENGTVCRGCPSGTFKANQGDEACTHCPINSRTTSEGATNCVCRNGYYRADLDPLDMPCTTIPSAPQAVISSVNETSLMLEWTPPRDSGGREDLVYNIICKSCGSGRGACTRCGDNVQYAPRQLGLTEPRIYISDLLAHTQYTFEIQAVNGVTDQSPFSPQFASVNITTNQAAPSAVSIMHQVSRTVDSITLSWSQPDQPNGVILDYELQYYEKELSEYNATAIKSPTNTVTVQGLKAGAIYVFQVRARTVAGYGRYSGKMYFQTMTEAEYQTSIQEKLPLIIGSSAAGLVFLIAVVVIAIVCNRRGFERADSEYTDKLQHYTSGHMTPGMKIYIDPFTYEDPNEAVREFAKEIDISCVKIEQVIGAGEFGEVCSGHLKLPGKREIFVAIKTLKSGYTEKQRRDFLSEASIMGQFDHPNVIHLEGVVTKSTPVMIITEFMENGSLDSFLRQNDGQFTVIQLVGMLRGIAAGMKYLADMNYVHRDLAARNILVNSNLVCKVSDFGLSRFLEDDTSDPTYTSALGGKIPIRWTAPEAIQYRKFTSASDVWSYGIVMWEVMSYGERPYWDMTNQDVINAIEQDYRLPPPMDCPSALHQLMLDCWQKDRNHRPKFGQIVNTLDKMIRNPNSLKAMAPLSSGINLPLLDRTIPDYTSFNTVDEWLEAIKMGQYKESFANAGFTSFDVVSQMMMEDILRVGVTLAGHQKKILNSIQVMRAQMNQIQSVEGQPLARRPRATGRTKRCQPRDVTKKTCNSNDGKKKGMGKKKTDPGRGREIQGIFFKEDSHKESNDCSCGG

Row | Sequence | phosphorylation enrichment (AncSZ) | phosphorylation enrichment (EPHB1) | phosphorylation enrichment (EPHB2) | phosphorylation enrichment (FGFR1) | phosphorylation enrichment (FGFR3) | phosphorylation enrichment (Fer (mouse)) | phosphorylation enrichment (Fes) | phosphorylation enrichment (Fyn) | phosphorylation enrichment (Hck) | phosphorylation enrichment (Jak2) | phosphorylation enrichment (MERTK) | phosphorylation enrichment (c-Abl (mouse)) | phosphorylation enrichment (c-Src) | SH2 binding enrichment (Grb2 SH2) | SH2 binding enrichment (SHP2-C SH2) | SH2 binding enrichment (c-Src SH2)
1 | DIPIRYSIMGV [CDH4_Y205_T208M] | 1.13 | 0.473 | 0.603 | 0.481 | 0.695 | 0.421 | 1.14 | 0.455 | 0.352 | 1 | 0.523 | 0.723 | 0.448 | 0.894 | 2.51 | 1.31
2 | DKNSSYFADWF [TUBB8_Y340_L345F] | 0.992 | 0.676 | 0.507 | 2.44 | 1.62 | 0.345 | 1.01 | 0.479 | 0.397 | 1.32 | 2.04 | 0.613 | 0.435 | 0.984 | 0.821 | 0.681
3 | DLEKTYNTYRS [B4GALNT2_Y538_A533D] | 0.848 | 0.382 | 0.509 | 0.554 | 0.703 | 0.401 | 0.788 | 0.845 | 0.761 | 0.823 | 0.424 | 0.441 | 1.03 | 0.654 | 0.511 | 0.43
4 | DLKFHYDNTAG [KDR_Y1214_P1210L] | 0.804 | 0.515 | 0.504 | 0.517 | 0.661 | 0.466 | 1 | 0.484 | 0.462 | 0.889 | 0.415 | 0.663 | 0.426 | 0.867 | 0.598 | 0.552
5 | DPAFGYEDFTR [SESN2_Y323_T320A] | 1.08 | 0.455 | 0.577 | 0.569 | 0.775 | 0.457 | 1.21 | 0.533 | 0.594 | 0.987 | 0.445 | 0.764 | 0.59 | 0.991 | 0.693 | 5.24
6 | DPHECYAKVFN [ALB_Y394_D399N] | 0.844 | 0.549 | 0.586 | 0.589 | 0.643 | 0.529 | 0.952 | 0.552 | 0.81 | 0.847 | 0.504 | 0.91 | 0.624 | 1.11 | 1.81 | 1.4
7 | DPLLTHRFPPK [LMNA_Y481_Y481H] | 0.434 | 0.288 | 0.242 | 0.459 | 0.43 | 0.36 | 0.521 | 0.411 | 0.381 | 0.571 | 0.421 | 0.395 | 0.406 | 0.834 | 0.661 | 0.458
8 | DPLLTYRFPPN [LMNA_Y481_K486N] | 0.882 | 0.446 | 0.455 | 0.766 | 0.861 | 0.472 | 0.751 | 0.51 | 0.503 | 0.768 | 0.497 | 0.649 | 0.65 | 0.747 | 0.66 | 0.605
9 | DPNQQYFIAMD [TBX15_Y159_H156N_YF] | 1.07 | 0.466 | 0.443 | 0.892 | 0.866 | 0.403 | 0.934 | 0.444 | 0.493 | 0.911 | 0.356 | 0.672 | 0.482 | 0.754 | 0.554 | 0.597
10 | DQIDTYELSGG [DNM1_Y354] | 1.38 | 0.423 | 0.735 | 0.54 | 0.695 | 0.479 | 1.12 | 1.29 | 0.752 | 0.866 | 0.481 | 0.616 | 1.28 | 0.673 | 0.585 | 0.607
11 | DQVEQYKKELE [LMNA_Y259] | 1.32 | 0.67 | 0.644 | 0.561 | 0.688 | 0.534 | 1.2 | 0.516 | 0.509 | 0.956 | 0.527 | 0.878 | 0.603 | 0.956 | 0.66 | 0.841
12 | DRLPSYLDKVR [KRT12_Y139_A137P] | 0.62 | 0.371 | 0.331 | 0.408 | 0.485 | 0.436 | 0.665 | 0.454 | 0.794 | 0.616 | 0.656 | 0.494 | 0.479 | 0.94 | 0.756 | 0.671
13 | DRPSEYAARQL [ANXA13_Y90] | 0.598 | 0.408 | 0.456 | 0.445 | 0.482 | 0.341 | 0.655 | 0.453 | 0.428 | 0.498 | 0.437 | 0.579 | 0.389 | 0.746 | 0.699 | 0.523
14 | DTDSSYCIPTA [GAB1_Y373] | 1.99 | 0.692 | 0.598 | 0.592 | 0.65 | 0.519 | 1.18 | 0.518 | 0.578 | 1.07 | 1.01 | 0.73 | 0.497 | 0.95 | 0.854 | 0.741
15 | DTLLEYLENPK [CYCS_Y68_M66L] | 1.45 | 0.7 | 0.535 | 0.503 | 0.828 | 0.576 | 1.25 | 0.493 | 0.511 | 1.04 | 0.448 | 0.668 | 0.463 | 0.763 | 0.735 | 0.501
16 | DTYDPYLDIAL [USP36_Y268_V271I] | 1.6 | 1.03 | 0.892 | 0.901 | 0.968 | 0.721 | 1.55 | 1.47 | 1.06 | 1.32 | 0.611 | 0.982 | 2.42 | 0.781 | 0.451 | 0.451
17 | DVRQEYPGMIL [PLXND1_Y616] | 0.675 | 0.413 | 0.517 | 0.455 | 0.588 | 0.394 | 0.949 | 0.41 | 0.497 | 0.76 | 0.487 | 0.669 | 0.403 | 0.889 | 0.555 | 0.433
